The results in this text go back to patent US20230067757A1 (NOVAROCK BIOTHERAPEUTICS, published 2023).

Numbering of substitutions follows the chain as printed.

Sequences and labels used below:
B1: NBL-014G (antibody, human IgG1, kappa, V domains shown)
VH: EVQLLESGGGLVQPGGSLRLSCAASGFTFSSFAMTWVRQAPGKGLEWVSSLSGSGRSTYYAASMKGRFTISRDNSKNTLYLQMNSLRAEDTAIYYCAKSLSYYHYYFDYWGQGTLVTVTS
VL: DIQLTQSPSFLSASVGDRVPITCRASQGISNFLAWYQQKPGKAPELLIHSASTLQSGVPSRFSGSGSGTEFTLTISNLQPQDFATYYCQQVNSYPLTFGGGTKVEIKR
modifications: low, or no IgG core fucose (non- or afucosylated)
B2: Ms5 (antibody, V domains shown)
VH: QVQLQQPGAELVKPGASVKLSCKASGYTFTRYLMHWVKQRPGQGLEWIGEINPSNGRTNYNEKFKSKAALTVDKSSSTAYMQLSSLTSEDSAVYYCARLAYGYGNAVDYWGQGTSVTVSS
VL: DIVMTQSPSSLSVSAGEKVTMSCKSSQSLLNSGNQKNYLAWYQQKPGQPPKLLIYGASTRESGVPDRFTGSGSGTDFTLTISSVQAEDLAVYYCQNDHSYPLTFGAGTKLELK
B3: Ms10 (antibody, V domains shown)
VH: EVQLQQSGPELEKPGASVKISCKASGYSFTGYKMNWVKQSNGKSLEWIGHIDPYYGGPRYNKKFMGKATLTVDRSSSTAYMQLKSLTSEDSAVYYCARLDYGNSFAYWGQGTLVTVSA
VL: B2 VL with L102F, A106G, L112I
B4: Ms6 (antibody, V domains shown)
VH: QVQLQQSGAELAKPGASVKMSCRASGYTFTSYLMHWIKQRPGQALEWIGYINPTTDYTEYNQKFKGKATLTADKSSSTAYMQLSSLTSEDSAVYYCGRLGYYKRNAMDHWGQGTSVTVSS
VL: B2 VL with S99F
B5: Ms12 (antibody, V domains shown)
VH: EIQLQQSGPELVKPGASVKVSCKASGYAFASYKMYWVKQSHGKSLEWIGYIDPYNGVTSYNQKFRGKATLTVDKSSSTAYMHLNSLTSEDSAVYYCARGAYYGNSFDYWGQGTTLTVSS
VL: DIVMTQSPSSLTVTAGEKVTMSCKSSQSLLNSGNQKNYLTWYQQQPGQPPKLLIYWASTRESGVPDRFTGSGSGTDFTLTISSVQAVDLAVYYCQSAYSFPYTFGGGTKLEVK
B6: Ms1 (antibody, V domains shown)
VH: EIQLQQSGPELVKPGASVKVSCKASGYAYTRYNMYWVKQSHGKSLEWIGYIDPYNGGTNYNQKFKGKATLTVDKSSSTAYMHLNSLTSEDSAVYYCARGGYYGNAMDYWGQGTSVTVSS
VL: DIVMTQSPSSLTVTAGEKVTMSCKSSQSLLNSGNQKNYLTWYQQKPGQPPKLLIYWASTRESGVPDRFTGSGSGTDFTLTISSVQAEDLSIYYCQSNYIYPFTFGAGTTLELQ
B7: Ms7 (antibody, V domains shown)
VH: EVKLVESGGDLVQPGGSLRLSCTTPGFTFSDFYMEWVRQPPGKRLEWIAASRNKANDYTTENSASVKGRFIVSRDTSQSILYLQMNALRAEDTAIYYCARDACPWDWFAYWGQGTLVTVSA
VL: B2 VL with S12T, S14T, A40T, G56W, H98Y, L102F, A106S, L112I
B8: Ms3 (antibody, V domains shown)
VH: EVMLVESGGGIVKPGGSLKLSCAASGFTLSSYTMSWVRQTPERRLEWVATIIIGGSYTYYPDSVKGRFTISRDNAKNTLYLQMSSLRSEDTAMYYCARQGYGNSFPYWGQGTLVTVSA
VL: B2 VL with S12T, S14T, A40T, G56W, H98Y, L102F, A106S, L112I
B9: Ms8 (antibody, V domains shown)
VH: B6 VH with G26D, Y29F
VL: B6 VL with K51Q
B10: Hu-16 (antibody, V domains shown)
VH: EVQLLESGGGVVQPGGSLRLSCAASGLIFSSYAMSWVRQAPGKGLEWVSVIGGSGSNTFYADSVKGRFTISRDNSKNTLFLQMNSLRAEDTAVYYCAKDRGYDILTGYYNYYYGMDVWGQGITVTVSS
VL: DIQMTQSPSSLSASVGDRVTITCRASQGIRNDLGWYQQKPGKAPKRLIYAASSLQSGVPSRFSGSGSGTEFTLTISSLQPEDFATYYCLQHNSYPYTFGQGTKLEIK
B11: Hu-5 (antibody, V domains shown)
VH: QVQLVQSGAEVKKPGASVKVSCEASGYTFTSSYMHWVRQAPGQGLEWMGIINPSGGRTNYAQKFQGRVTMTRDTSTSTVYMELSSLRSEDTAVYYCARDHYDIFTTYYPRGMDVWGQGTTVTVSS
VL: B10 VL with A84T, Y94F, Y96F, K103E, K107R
B12: Hu-14 (antibody, V domains shown)
VH: EVQLLESGGGLVQPGGSLRLSCAASGITFSSYAMSWVRQVPGKGLEWVSVISGSGGSTYYADSVKGRFTISRDNSKNTLYLQMNSLRAEDTAVYYCAKDRGYDILTTYYDYFYGMDVWGQPEFQHTGG
VL: B10 VL with T20I, F83L, T85S

For the first assay, the target named is human claudin 18 isoform 2 (claudin 18.2) (human). As to the kind of experiment: cell-based or functional assay.
For the molecule B1, the “ADCC EC50, CHO-claudin18.2 cells (human FcγRIIIa reporter bioluminescence)” value worked out at 0.02 nM; the “ADCC EC50, NUGC-4 cells (human FcγRIIIa reporter bioluminescence)” value was 0.06 nM; the “ADCC EC50, PATU8988S cells (human FcγRIIIa reporter bioluminescence)” value is 0.04 nM; the “CDC EC50, CHO-claudin18.2 cells (human serum, flow cytometry)” value was found to be 0.3 nM. The “fold improvement of ADCC EC50 over parental NBL-014, CHO-claudin18.2 cells (human FcγRIIIa reporter bioluminescence)” value was found to be 35 fold; the “fold upshift of maximum ADCC effect over parental NBL-014, NUGC-4 cells (human FcγRIIIa reporter bioluminescence)” value is roughly 3 fold; the “fold upshift of maximum ADCC effect over parental NBL-014, PATU8988S cells (human FcγRIIIa reporter bioluminescence)” value was roughly 33 fold.

In a further assay the target is T1, human claudin 18 isoform 2 (claudin 18.2) (human).
T1 construct: Recombinant on transfected CHO cells (CHO-CLDN18.2) or endogenous on tumor cell lines PATU8988S, NUGC-4, KATOIII; the cell line is named under assay; also called CLDN18.2
As to the kind of experiment: imaging, PATU8988S cells (endogenous CLDN18.2); +++ = EC50 between 2 nM and 20 nM.
The EC50 is the concentration at which the effect is half-maximal. The molecule B2 showed an EC50 of 2 to 20 nM.
B3: the EC50 was in the range of 2 to 20 nM.
For the molecule B4, the EC50 was in the range of 2 to 20 nM.
In turn, B5 displayed a concentration for a half-maximal effect (EC50) of 2 to 20 nM.
Same read-out and setting: the figure for B6 is 2 to 20 nM.
The molecule B7 showed a concentration for a half-maximal effect (EC50) of 2 to 20 nM.
Molecule B8 came in with a concentration for a half-maximal effect (EC50) of 2 to 20 nM.
On the same count and under the same terms, the result for B9 reads 2 to 20 nM.

The next assay deals with T2, human claudin 18 isoform 1 (claudin 18.1) (human, UniProt P56856 1-261).
T2 construct: Recombinant on transfected CHO cells (CHO-CLDN18.1); also called CLDN18.1
T2 sequence (P56856 whole entry, canonical isoform): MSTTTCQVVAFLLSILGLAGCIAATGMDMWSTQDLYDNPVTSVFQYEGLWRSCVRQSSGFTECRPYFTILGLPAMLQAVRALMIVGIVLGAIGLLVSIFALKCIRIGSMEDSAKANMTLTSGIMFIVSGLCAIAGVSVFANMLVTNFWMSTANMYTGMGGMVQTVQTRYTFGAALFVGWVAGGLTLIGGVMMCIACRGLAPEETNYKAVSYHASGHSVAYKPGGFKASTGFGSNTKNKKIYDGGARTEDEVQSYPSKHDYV
As to the kind of experiment: immunofluorescence imaging on CHO cells expressing human CLDN18.1, antibody at 10 µg/ml. On the procedure: (§1) The specific cellular binding affinity of anti-Claudin18.2 antibodies was tested on CHO-CLDN18.2 (transfected CHO cell expressing recombinant human CLDN18.2) and CHO-CLDN18.1 (transfected CHO cell expressing recombinant human CLDN18.1) cells. The cells were plated in complete media containing F12 with 10% FBS, then incubated overnight at 37° C., anti-Claudin18.2 antibodies were serial diluted and added to the assay plates, incubated at 4° C. for 2 hours, followed by fixing cells and further staining the cells for 30 minutes with Alexa Fluor® 488 Goat Anti-Human IgG (H+L) secondary antibody, invitrogen Cat #A-11013 for detection. The binding was assessed by imaging the cells and quantifying the fluorescence intensity using a Biotek Cytation.
On to B10, for which the binding result is “no binding (tested: 10 µg/ml)”.
Regarding B11, the binding result is “no binding (tested: 10 µg/ml)”.
On the same count and under the same terms, the result for B2 reads “no binding (tested: 10 µg/ml)”; that for B3, “no binding (tested: 10 µg/ml)”; that for B4, “no binding (tested: 10 µg/ml)”.
Take B5: the binding result is reported as “no binding (tested: 10 µg/ml)”.
On the same count and under the same terms, the result for B6 reads “no binding (tested: 10 µg/ml)”; that for B7, “no binding (tested: 10 µg/ml)”.
Regarding B8, the binding result is listed as “no binding (tested: 10 µg/ml)”.
The same measure, in the same setting: the entry for B9 is “no binding (tested: 10 µg/ml)”.

The target of another assay is T1, human claudin 18 isoform 2 (claudin …). The assay is described as follows: cell-based or functional assay.
On to B12, for which the “ADCC EC50, CHO-18.2 target cells (mouse FcγRIV reporter bioluminescence)” value (“ADCC EC50, CHO-18.2 target cells” for short) is 1.51 nM.
Regarding B10, the “ADCC EC50, CHO-18.2 target cells” value is 3.09 nM.
For the molecule B11, the “ADCC EC50, CHO-18.2 target cells” value was found to be 7.09 nM.

For a further assay the target is unchanged. The assay is described as follows: cell-based or functional assay. The source holds these as a separate data set.
B12: the “endocytosis derived cell toxicity EC50, CHO-18.2 cells (anti-IgG Fc-MMAF co-internalization)” value (“endocytosis derived cell toxicity EC50” for short) was found to be 1.51 nM.
On the same count and under the same terms, the result for B10 reads 3.09 nM; that for B11, 13.4 nM.

The target is the same in the next assay. The assay is described as follows: cell-based or functional assay. This is another data set of the same source.
Consider B2, for which the “endocytosis derived cell toxicity EC50” value was 1.43 nM.
B3: the “endocytosis derived cell toxicity EC50” value amounted to 0.96 nM.
On to B4, for which the “endocytosis derived cell toxicity EC50” value is 1.26 nM.
Same read-out and setting: the result for B5 reads 1.07 nM; that for B6, 1.09 nM.
For B7, the “endocytosis derived cell toxicity EC50” value was 1.12 nM.
B8: the “endocytosis derived cell toxicity EC50” value came out at 1.14 nM.
The same measure, in the same setting: the result for B9 reads 1.08 nM.

The next assay has the same target. As to the kind of experiment: immunofluorescence imaging, CHO-CLDN18.2 cells, serial dilution. On the procedure: as §1
On to B12, for which the EC50 turned out to be 19 nM.
The same measure, in the same setting: the figure for B10 is 12 nM; for B11 it is 4.5 nM; for B2 it is 1.7 nM.
Take B3: the response was half-maximal at 1.3 nM (EC50).
The molecule B4 showed an EC50 of 1.2 nM.
As to B5, the 50% effective concentration (EC50) is 2 nM.
The molecule B6 gave an EC50 of 1.2 nM.
The molecule B7 came in with a 50% effective concentration (EC50) of 1.4 nM. This EC50 and that of the molecule before are within 1.5-fold of each other.
The molecule B8 showed an EC50 of 1.8 nM. The EC50 values of the last two molecules are within 1.5-fold of each other.
In turn, B9 returned an EC50 of 1.5 nM.
